# Measured values as given in US10688077B2, “Inflammasome activation in myelodysplastic syndromes” (H. Lee Moffitt Cancer Center and Research Institute, Inc., priority 2015, dated 2020).
# B1: CD33-IgG1: S100A9 high-affinity chimeric (CD33-IgG1) decoy receptor (protein)
# chain: DPNFWLQVQESVTVQEGLCVLVPCTFFHPIPYYDKNSPVHGYWFREGAIISRDSPVATNKLDQEVQEETQGRFRLLGDPSRNNCSLSIVDARRRDNGSYFFRMERGSTKYSYKSPQLSVHVTDLTHRPKILIPGTLEPGHSKNLTCSVSWACEQGTPPIFSWLSAAPTSLGPRTTHSSVLIITPRPQDHGTNLTCQVKFAGAGVTTERTIQLNVTYVPQNPTTGIFPGDGSGKQETRAGVVH
# modifications: left off: a dimerising Fc or GST
# Tests used:
# [1] = tested on: MDS BM-MNC; assay: Pyroptosis flow cytometry panel, MDS BM-MNC incubated with autologous BM plasma; format: cell-based, human
# Protocol: For human samples, treated and untreated BM-MNC were incubated overnight in IMDM, supplemented with 10% autologous BM plasma. Subsequently, cells were harvested, washed twice in 1×PBS, and stained with LIVE/DEAD Violet fluorescent reactive dye according to the manufacturer's protocol (Life Technologies). Cells were resuspended in 1×PBS with 2% BSA, and incubated at room temperature for 15 minutes to block non-specific binding. After washing, cells were stained with 30×FAM-FLICA® Caspase-1 and Caspase-3/7 solution at a ratio of 1:30 for 2 hours at 37° C. Cells were washed and stained for cell surface receptors using CD38:PE-CF594, CD33:BV711, CD34:APC (BD Biosciences), and CD71:PE-Cyanine7 (eBioscience). All antibodies were diluted 1:20, and cells were stained for 30 minutes at 4° C. Cells were washed, resuspended in 1× binding buffer, and stained with Annexin-V:Cy5.5 at a dilution of 1:20 for 15 minutes at room temperature (BD Biosciences). 1× binding buffer was added to a final volume of 400 μL. Sample acquisitions were carried out using a BD LSR II flow cytometer and FACSDiva software (BD Biosciences). Calibration of the flow cytometer was carried out prior to each experiment using Rainbow Mid-Range Fluorescent Particles (BD Biosciences). To establish fluorescence compensation settings, ArC Amine Reactive Compensation Beads were used for LIVE/DEAD Violet staining (Life Technologies), and BD CompBead Plus Anti-Mouse Ig κ/Negative Control (BSA) Compensation Plus Particles were used for surface receptor conjugates (BD Biosciences). Data were analyzed using FlowJo 9.7.5 software (FlowJo, LLC, Ashland, Oreg.).
# [2] = tested on: lower-risk MDS BM-MNC; assay: qPCR of pyroptosis-related gene expression in lower-risk MDS BM-MNC; format: cell-based, human; conditions: 24 hours, versus autologous BM plasma alone, n=5
# Protocol: PCR RNA was isolated from BM-MNC using the RNeasy Mini Kit (Qiagen). cDNA was produced using the iScript cDNA Synthesis Kit (Bio-Rad). Sequences for primers can be found in Table 1. GAPDH mRNA was used for transcript normalization. cDNA was amplified using the iQ SYBR Green Supermix and the CFX96 Real-Time PCR Detection System (Bio-Rad). PCR conditions were as follows: 10 minutes at 95° C., followed by 40 cycles of amplification (15 seconds at 95° C. and 1 minute at 60° C.). Relative gene expression was calculated using the […] method.
molecule,measurement,setting,value
B1,"reduction of the fraction of pyroptotic cells, maximum lineage-specific change, CD33+ cells","[1]; CD33+ immature myeloids, 0.5 μg CD33-IgG1 or 0.1 μM IRAK4 inhibitor, 24 hours, autologous BM plasma, n=4",68%
same,"reduction of the fraction of pyroptotic cells, maximum lineage-specific change, CD71+ cells","[1]; CD71+ erythroids, 0.5 μg CD33-IgG1 or 0.1 μM IRAK4 inhibitor, 24 hours, autologous BM plasma, n=4",64%
same,fraction of pyroptotic cells across all lineages studied,[1]; MDS BM-MNC with autologous BM plasma (FIG. 20),marked reduction
same,"reduction of the fraction of pyroptotic cells, maximum lineage-specific change, progenitor cells","[1]; progenitor cells (CD34+CD38+), 0.5 μg CD33-IgG1 or 0.1 μM IRAK4 inhibitor, 24 hours, autologous BM plasma, n=4",23%
same,MDSC fraction,[1]; short-term treatment,significantly reduced
same,"reduction of the fraction of pyroptotic cells, maximum lineage-specific change, stem cells","[1]; stem cells (CD34+CD38-), 0.5 μg CD33-IgG1 or 0.1 μM IRAK4 inhibitor, 24 hours, autologous BM plasma, n=4",44%
same,CASP1 expression,[2],reduced
same,CASP3 expression,[2],markedly reduced
same,IL-1β expression,[2],reduced
same,IL-18 expression,[2],reduced
same,NLRP3 expression,[2],reduced
